# Results taken from US20220401560A1, “PEPTIDE ENCAPSULATING FERRITIN” (Ajinomoto Co., Inc., priority 2019, published 2022).
# No end group written: not given here.
# What was measured:
# ferritin (FTL) = molecular target: T1, ferritin (FTL) (Homo sapiens, UniProt P02792); assay: Encapsulation of fluorescent dye-modified peptide into FTL, column chromatography with absorbance at 480 nm; details: absorbance at 480 nm at the position of the FTL peak
# T1 construct: made in house; host or cells: Escherichia coli BL21 (DE3), plasmid pET20-FTL
# Description: 0.5 mL of a 50 mM glycine hydrochloride buffer (pH 2.3) that contains FTL (chemical formula weight 480,466) at a final concentration of 5 mg/mL and the peptide at a final concentration of 0.5 mM, was left to stand at room temperature for 15 minutes. Next, 50 μL of a 1 M Tris hydrochloride buffer (pH 9.0) was added for neutralization, and the resulting solution was left to stand at room temperature for 3 hours. After the standing, the resulting solution was centrifuged (at 15,000 rpm for one minute). Then, the supernatant was collected and diluted with a 10 mM Tris hydrochloride buffer (pH 8) up to 3 mL in volume. The resulting solution was injected into the HiPrep 26/60 Sephacryl S-300 HR column (GE Healthcare Inc.) equilibrated with D-PBS (-) (Fujifilm Wako Pure Chemical Corporation) to separate and purify 24-mer FTL by size at a flow rate of 1.3 mL/minute. The purified ferritin was analyzed using a HIPrep 16/60 Sephacryl S-300 HR column (GE Healthcare Inc.) equilibrated with PBS at a flow rate of 0.5 mL/minute.
# ferritin (FTH) [1] = molecular target: T2, ferritin (FTH) (Homo sapiens, UniProt P02794); assay: Encapsulation of fluorescent dye-modified peptide into FTH, column chromatography with absorbance at 480 nm and LC-MS
# T2 construct: made in house; host or cells: Escherichia coli BL21 (DE3), plasmid pET20-FTH
# Description: Of a 50 mM glycine hydrochloride buffer (pH 2.3) that contains FTH (chemical formula weight: 509,421) at a final concentration of 5 mg/mL and the peptide at a final concentration of 0.5 mM, 0.5 mL was left to stand at room temperature for 15 minutes. Next, 50 μL of a 1 M Tris hydrochloride buffer (pH 9.0) was added for neutralization, and the resulting solution was left to stand at room temperature for 3 hours. After the standing, the resulting solution was centrifuged (at 15,000 rpm for one minute). Then, the supernatant was collected and the volume was increased up to 3 mL with a 10 mM Tris hydrochloride buffer (pH 8). The resulting solution was injected into the HiPrep 26/60 Sephacryl S-300 HR column (GE Healthcare Inc.) equilibrated with a 10 mM Tris-HCl buffer (pH 8.0) to separate and purify 24-mer FTH by size at a flow rate of 1.3 mL/minute. The purified ferritin was analyzed using a HiPrep 16/60 Sephacryl S-300 HR column (GE Healthcare Inc.) equilibrated with a 10 mM Tris-HCl buffer (pH 8.0) at a flow rate of 0.5 mL/minute and confirmed as the absorbance at 480 nm unobservable from FTH only, at the same position as that of a peak of FTH.
# The solution containing the FTH was concentrated to 0.25 mL by centrifugal ultrafiltration using Vivaspin 20-100K (GE Healthcare Inc.). […] For the LC-MS analysis, 50 μL of a 1 M glycine hydrochloride buffer (pH 2.3) was added to 50 μL of the sample solution and then the resulting solution was left to stand at room temperature for 15 minutes. To the solution 900 μL of ethanol was added. Next, the resulting solution was stirred vigorously and then centrifuged (at 15,000 rpm for five minutes) to collect its supernatant. The supernatant was analyzed using LCMS-2020 (Shimadzu Corporation) as LC-MS, inertsil (Registered trademark) ODS-3 with a particle diameter of 2 μm and 2.1 mm×50 mm (GL science) as a column. Into the column, 10 μL of the sample was injected, and eluded at a flow rate of 0.2 mL/min for 10 minutes such that a mixing ratio of a solution A (0.1% formic acid/99.9% acetonitrile) and a solution B (50% water/50% acetonitrile) was from 95:5 to 95:5. The concentration of the contained protein was determined using a protein assay CBB solution (Nacalai Tesque, Inc.) in terms of bovine albumin as a standard. The concentration of the encapsulated peptide was determined based on the absorbance at 480 nm of the fluorescent dye FAM to which PKC-F is modified.
# First, the construction of FTH encapsulating two kinds of fluorescent dye-modified peptides [5(6)—FAM-[…] (SEQ ID NO: 10), FAM-SV40, chemical formula weight 1,516, and 5(6)—FAM-[…] […] (SEQ ID NO: 11), FAN-Np, chemical formula weight 384] was attempted. 0.5 mL of a 50 mM glycine hydrochloride buffer (pH 2.3) that contains FTH (chemical formula weight 509,421) at a final concentration of 5 mg/mL and a peptide at a final concentration of 0.5 mM, was left to stand at room temperature for 15 minutes. Next, 50 μL of a 1 M Tris hydrochloride buffer (pH 9.0) was added for neutralization, and the resulting solution was left to stand at room temperature for 3 hours. […] The absorbance at […] was confirmed at the same elusion position as that of ferritin 24-mer, for ferritin that was used for the operation to encapsulate FAM-SV40 therein. […] Next, the peptide amount of FAM-SV40 encapsulated in purified ferritin was quantified based on the 480 nm absorbance and by CBB staining with use of ferritin-amount-albumin as a standard.
# ferritin (FTH) [2] = molecular target: T2, ferritin (FTH); assay: Search for peptides capable of being encapsulated into ferritin by disassembly/reassembly process, LC-MS detection; details: encapsulation into ferritin (FTH); three trials
# Description: Peptides capable of being encapsulated into ferritin by disassembly/reassembly process were searched. In the disassembly/reassembly process, 1 mL of a 50 mM glycine hydrochloride buffer (pH 2.3) containing FTH at a final concentration of 5 mg/mL and the peptide at a final concentration of 0.5 mM, was left to stand at room temperature for 15 minutes. Next, 310 μL of a 1 M Tris hydrochloride buffer (pH 9.0) was added for neutralization, and left to stand at room temperature for 3 hours. After the standing, 1.2 mL of a 50 mM Tris hydrochloride buffer (pH 8.0) was added, and centrifuged (at 15,000 rpm for one minute). Thereafter, 2.5 mL of its supernatant was injected into a desalting column PD-10 (Sephadex G-25 filled product, GE Healthcare Inc.) equilibrated with a 50 mM Tris hydrochloride buffer (pH 8) for the elusion with 3.0 mL of a 50 mM Tris hydrochloride buffer (pH 8.0) to separate non-encapsulated peptides and ferritin. A whole amount (3.0 mL) of the resulting solution was concentrated to 0.1 mL by centrifugal ultrafiltration using Vivaspin 20-100K (GE Healthcare Inc.). The operation of adding 10 mL of a 50 mM Tris hydrochloride buffer to the concentrated solution and then concentrating was repeated twice to remove peptides that were not removed by PD-10 to obtain 0.1 mL of a sample solution. For the LC-MS analysis, 50 p1 of a 1 M glycine hydrochloride buffer (pH 2.3) was added to 50 μL of the sample solution and then the resulting solution was left to stand at room temperature for 15 minutes. To the solution, 900 μL of ethanol was added. Next, the resulting solution was stirred vigorously and then centrifuged (at 15,000 rpm for five minutes) for collection of the supernatant. The supernatant was analyzed using LCMS-2020 (Shimadzu Corporation) as LC-MS, Inertsil (Registered trademark) as a column, ODS-3, particle diameter of 2 μm and 2.1 mm×50 mm (GL science). Thereafter, 10 μL of the sample injected into the column was eluded at a flow rate of 0.2 mL/min for 10 minutes such that a mixing ratio of a solution A (0.1% formic acid/99.9% acetonitrile) and a solution B (50% water/50% acetonitrile) is from 95:5 to 95:5.
# The encapsulation of the peptide into ferritin was studied by comparing in terms of the amount of the peptide detected by LC/MS between the sample prepared by encapsulating the peptide into ferritin at the disassembly/reassembly process and the sample prepared simply by mixing ferritin with the peptide. For example, ClAc-FHC was eluted at a retention time of 0.8 minute. […] However, the peak was not observed for the sample prepared by simply mixing the peptide with ferritin without performing the disassembly/reassembly process (FIG. 12B). FIG. 13 to FIG. 17 illustrate LC-MS results for FTH in which the peptide was encapsulated at the disassembly/reassembly process.
# SKBR-3 cell = assay: Cell incorporation observed with two-photon excitation fluorescence microscope; type: cell-based, human; details: 24 hours, same conditions as FACS test
# T2 sequence (P02794 whole entry): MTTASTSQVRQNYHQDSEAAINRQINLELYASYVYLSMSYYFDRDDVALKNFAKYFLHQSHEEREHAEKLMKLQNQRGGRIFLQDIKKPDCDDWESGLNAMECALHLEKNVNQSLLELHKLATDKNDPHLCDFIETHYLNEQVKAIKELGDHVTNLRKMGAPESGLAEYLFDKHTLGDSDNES
# T1 sequence (P02792 whole entry): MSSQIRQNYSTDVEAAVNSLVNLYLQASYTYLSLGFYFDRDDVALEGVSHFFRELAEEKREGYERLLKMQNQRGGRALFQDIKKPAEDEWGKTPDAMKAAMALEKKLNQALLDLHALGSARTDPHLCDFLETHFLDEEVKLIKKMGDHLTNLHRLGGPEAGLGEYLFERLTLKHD
substance,measurement,setting,value
"5(6)-FAM-RFARKGALRQKNVHEVKN (SEQ ID NO: 9) ({5(6)‑FAM}-RFARKGALRQKNVHEVKN) [PKC-F, fluorescent dye fluorescein (FAM)-modified peptide, linear]",encapsulation of peptide in FTL,ferritin (FTL),encapsulated in FTL
same,molecules of peptide encapsulated in one molecule of ferritin on average,"ferritin (FTH) [1]; FTH, from molar ratio",8.5 molecules
same,encapsulation of peptide in FTH,"ferritin (FTH) [1]; absorbance at 480 nm at elution position of 24-mer FTH, LC-MS",encapsulated by the ferritin encapsulation operation without being decomposed
same,encapsulation,ferritin (FTH) [2],A (“A” represents peptides with three times of confirmation of encapsulation.)
same,"incorporation into cells, fluorescence at the interior of cells",SKBR-3 cell,not confirmed
